{
  "source": "paper PMC6270503",
  "test_in_all_cases": "SPR; ProteON XPR36, GLC chip; BMP-2 immobilised by amine coupling (1000-2000 RU), CV2 VWC1 proteins as analytes in six concentrations; 25 °C, HBST500 (10 mM HEPES pH 7.4, 500 mM NaCl, 0.005% Tween20); global Langmuir 1:1 fit, KD = koff/kon, or from dose-dependency of equilibrium binding for weak or fast binders; apparent KD",
  "key": {"[1]": {"target": "E. coli derived recombinant human BMP-2 (human) (UniProt P12643)", "sequence (P12643 283-396)": "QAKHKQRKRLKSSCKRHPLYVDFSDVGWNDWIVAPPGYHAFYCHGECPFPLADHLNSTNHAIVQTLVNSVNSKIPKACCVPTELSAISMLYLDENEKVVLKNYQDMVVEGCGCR"}, "[2]": {"target": "E. coli derived recombinant human BMP-2 (human) (UniProt P12643)", "remark": "listed apart in the source"}, "[3]": {"target": "E. coli derived recombinant human BMP-2 (human) (UniProt P12643)", "remark": "listed apart in the source"}},
  "note": "pKd: −log10 of the molar value. Where two headings read alike, the source gives them in different places.",
  "data": [
    {"substance": "CV2 VWC1 E6P (domain or fragment)", "values": [
      {"measurement": "pKd", "setting": "[1]", "value": 7.92},
      {"measurement": "koff", "setting": "[1]", "value": 0.0073, "unit": "s⁻¹"},
      {"measurement": "kon", "setting": "[1]", "value": 630000, "unit": "M⁻¹ s⁻¹"}
    ]},
    {"substance": "CV2 VWC1 E10A (domain or fragment)", "values": [
      {"measurement": "pKd", "setting": "[1]", "value": 7.89},
      {"measurement": "koff", "setting": "[1]", "value": 0.0095, "unit": "s⁻¹"},
      {"measurement": "kon", "setting": "[1]", "value": 750000, "unit": "M⁻¹ s⁻¹"}
    ]},
    {"substance": "CV2 VWC1 G4A (domain or fragment)", "values": [
      {"measurement": "pKd", "setting": "[1]", "value": 6.62},
      {"measurement": "koff", "setting": "[1]", "value": "> 0.05", "unit": "s⁻¹"},
      {"measurement": "koff", "setting": "[2]", "value": 0.06, "unit": "s⁻¹"}
    ]},
    {"substance": "CV2 VWC1 InsA10 (domain or fragment)", "values": [
      {"measurement": "pKd", "setting": "[1]", "value": 7.89},
      {"measurement": "koff", "setting": "[1]", "value": 0.0012, "unit": "s⁻¹"},
      {"measurement": "kon", "setting": "[1]", "value": 910000, "unit": "M⁻¹ s⁻¹"}
    ]},
    {"substance": "VWC1 domain (von Willebrand type C domain 1) of Danio rerio Crossveinless 2, wildtype (domain or fragment)", "values": [
      {"measurement": "pKd", "setting": "[1]", "value": 7.89},
      {"measurement": "koff", "setting": "[1]", "value": 0.0087, "unit": "s⁻¹"},
      {"measurement": "kon", "setting": "[1]", "value": 650000, "unit": "M⁻¹ s⁻¹"},
      {"measurement": "pKd", "setting": "[3]", "value": 7.85}
    ]}
  ]
}
